From the RNAGym collection of RNA variant scans (doi:10.7554/elife.80360) come the findings set out here.

B1: Hairpin Ribozyme (parent)
chain: GUCCUCUUUCACGUGCGCGUGAAAGAGAGAAGUGAACCAGAGAAACACACGUUGUGGUAUAUUACCUGGUA

In the data set the parent is B1. The data set can be described thus: self-cleavage, relative activity (ratio to wild type); higher = more cleavage; co-transcriptional.
As for C10G G25U, the self-cleavage was 0.481.

On to C6G A45U, for which the self-cleavage worked out at 0.101.

U2G C46A: the self-cleavage is 0.121.

For the variant A41C A49G, the self-cleavage is 0.561.

As to C38U C50A, the self-cleavage was found to be 0.207.

With A11G A49C, the self-cleavage was 0.124.

In the case of U9A A31G, the self-cleavage stood at 0.313.

Turning to G25U C66G, the self-cleavage was 0.177.

For G19A U58G, the self-cleavage was found to be 0.583.

In the case of G32A U67G, the self-cleavage amounted to 0.0549.

Take A24U G25U: the self-cleavage came out at 0.682.

A44C C48G: the self-cleavage turned out to be 0.151.

Regarding A22U G42C, the self-cleavage is 0.325.

Regarding U9C G56A, the self-cleavage stood at 0.171.

As for A41U G54U, the self-cleavage is 1.19.

A47U C65A: the self-cleavage is 0.0949.

Regarding C12G G13A, the self-cleavage was found to be 0.851.

On to A47C U58C, for which the self-cleavage is 0.318.

In the case of U14G C50U, the self-cleavage was determined as 0.2.

For the variant A11C A43C, the self-cleavage came out at 0.

Take C4G C38A: the self-cleavage amounted to 0.0909.

A23G A24C: the self-cleavage came to 0.648.

For the variant C6U C18G, the self-cleavage came out at 0.775.

On to A28G U52G, for which the self-cleavage amounted to 0.948.

Consider A35G U55C, for which the self-cleavage turned out to be 0.3.

With U8A U55G, the self-cleavage was found to be 0.268.

A26U G27U: the self-cleavage was 0.0812.

As for G19U U52C, the self-cleavage stood at 0.818.

Take U20G U58C: the self-cleavage was determined as 0.826.

With A24U A35G, the self-cleavage came out at 0.751.

Regarding U9G U67A, the self-cleavage was 0.0846.

For C12G G25C, the self-cleavage worked out at 0.489.

Take U5G A61U: the self-cleavage amounted to 0.108.

For the variant C37U G54A, the self-cleavage was determined as 0.397.

Regarding A22U A64U, the self-cleavage was found to be 0.14.

As for C48G G54A, the self-cleavage was determined as 0.172.

Regarding U2A C48G, the self-cleavage was 0.162.

Take U14G G69C: the self-cleavage turned out to be 0.238.

Regarding C16G U53G, the self-cleavage was 0.713.

Take G56C G69C: the self-cleavage stood at 0.12.

Turning to A22C A59U, the self-cleavage turned out to be 0.104.

For the variant G25U U52A, the self-cleavage worked out at 0.55.

In the case of G69A U70A, the self-cleavage amounted to 0.434.

In the case of A24G G25A, the self-cleavage is 0.591.

As to C3A G69U, the self-cleavage turned out to be 0.212.

With C16A U20A, the self-cleavage worked out at 0.743.

Regarding C6U C37G, the self-cleavage came out at 0.372.

As for U8G U67G, the self-cleavage was determined as 0.242.

For A45C G56A, the self-cleavage amounted to 0.144.

On to U5A G13U, for which the self-cleavage was 0.302.

With U5C U70C, the self-cleavage was 0.277.

For G21A G69A, the self-cleavage is 0.382.

With A26U U58C, the self-cleavage was found to be 0.657.

Take G13U A43G: the self-cleavage worked out at 0.186.

For the variant C4G A61G, the self-cleavage was 0.098.

Take U9C U20G: the self-cleavage turned out to be 0.503.

In the case of C50A A71G, the self-cleavage worked out at 0.253.

Consider U8G U58A, for which the self-cleavage worked out at 0.665.

Regarding U20G A22C, the self-cleavage amounted to 0.816.

Turning to G21A U58G, the self-cleavage is 0.554.

In the case of A61U U70G, the self-cleavage was determined as 0.261.

As to C6A A35C, the self-cleavage worked out at 0.695.

Turning to U62A G68U, the self-cleavage was 0.28.

Consider G27U C37A, for which the self-cleavage is 0.108.

In the case of A11C U60G, the self-cleavage came out at 0.714.

Consider G21C A45U, for which the self-cleavage is 0.154.

For C4G A11U, the self-cleavage was 0.232.

On to A11C A30U, for which the self-cleavage turned out to be 0.177.

Turning to A31U U58C, the self-cleavage was 0.

G25A A35U: the self-cleavage was 0.39.

Take G27C G51U: the self-cleavage was 0.17.

On to U9G G19A, for which the self-cleavage was found to be 0.548.

With G25U C38A, the self-cleavage is 0.216.

Consider A24G C48A, for which the self-cleavage was found to be 0.191.

Regarding A28G U55A, the self-cleavage turned out to be 0.208.

On to G1A U7C, for which the self-cleavage is 0.31.

With A22G A30G, the self-cleavage turned out to be 0.0887.

C6U A44C: the self-cleavage stood at 0.119.

C46G C48U: the self-cleavage turned out to be 0.156.

In the case of G19C A31C, the self-cleavage worked out at 0.143.

A26C G42C: the self-cleavage is 0.357.

Regarding U5A U53A, the self-cleavage turned out to be 0.221.

Consider U5A U53C, for which the self-cleavage was 0.452.

As to G13A G25U, the self-cleavage turned out to be 0.512.

On to U7G G13A, for which the self-cleavage was 0.704.

Consider U5A U20A, for which the self-cleavage turned out to be 0.315.

On to A59U G68A, for which the self-cleavage came to 0.231.

Regarding G68A G69A, the self-cleavage was 0.103.

With G27C C65G, the self-cleavage was 0.152.

As to A26U A43C, the self-cleavage was determined as 0.098.

In the case of G56U A64G, the self-cleavage is 0.0832.

Regarding U14C U62A, the self-cleavage was determined as 0.142.

As for G13A A47U, the self-cleavage was determined as 0.172.

As for C6U G54A, the self-cleavage is 0.59.

Regarding U7C A47C, the self-cleavage was 0.205.

Turning to C12A, the self-cleavage came out at 0.805.

Take G40C A61C: the self-cleavage was 0.107.

Take C4U G19A: the self-cleavage stood at 0.327.

Take U2A G56U: the self-cleavage stood at 0.179.

For the variant G25A A41U, the self-cleavage was 0.85.

In the case of A24C A41C, the self-cleavage amounted to 1.01.

For A28U G56A, the self-cleavage is 0.174.

As for C37U U53A, the self-cleavage is 0.775.

Regarding U33A A64G, the self-cleavage worked out at 0.164.

In the case of C10A A22G, the self-cleavage was 0.607.

As to U55G A64G, the self-cleavage came to 0.266.

As to A23G G34U, the self-cleavage is 1.29.

Consider G29U A36C, for which the self-cleavage turned out to be 0.101.

In the case of A43U A61G, the self-cleavage came to 0.144.

With U62G G68C, the self-cleavage came to 0.186.

Turning to A26G G40A, the self-cleavage came to 0.302.

For the variant G40C U60G, the self-cleavage is 0.102.

On to C3A C6A, for which the self-cleavage amounted to 0.484.

In the case of A39U U70C, the self-cleavage was found to be 0.247.

Regarding G25A U52C, the self-cleavage came to 0.7.

Take U8A C10U: the self-cleavage is 0.643.

For the variant G29U A49C, the self-cleavage amounted to 0.14.

For the variant A59G U63C, the self-cleavage was 0.134.

In the case of C4U U33A, the self-cleavage stood at 0.283.

For the variant A43C G68U, the self-cleavage is 0.0938.

As to A28G G69A, the self-cleavage turned out to be 0.48.

Regarding C18A G21U, the self-cleavage was determined as 0.669.

Regarding G15A A59C, the self-cleavage came to 0.182.

With A47C A71C, the self-cleavage came out at 0.72.

As for G1A A26C, the self-cleavage was 0.147.

Take C4A G56U: the self-cleavage came to 0.166.

For the variant C46G A47C, the self-cleavage was determined as 0.125.

For A26C U70A, the self-cleavage was found to be 0.63.

For the variant U8A U33C, the self-cleavage is 0.137.

Take U9C G51U: the self-cleavage turned out to be 0.463.

In the case of C18A G25A, the self-cleavage came out at 0.681.

For A28C A31G, the self-cleavage was 0.333.

Turning to G32U U58C, the self-cleavage turned out to be 0.116.

A30G A36U: the self-cleavage turned out to be 0.152.

Take A22C U53C: the self-cleavage worked out at 1.03.

As for A28U A41G, the self-cleavage came to 0.35.

Take C3G A28G: the self-cleavage was determined as 0.362.

For the variant G1A A22G, the self-cleavage amounted to 0.223.

Turning to A30U U67C, the self-cleavage turned out to be 0.0825.

For the variant U20G G21U, the self-cleavage came out at 0.754.

Consider U2C U8A, for which the self-cleavage stood at 0.191.

For U2G C48U, the self-cleavage is 0.117.

As for G25A U70A, the self-cleavage amounted to 0.519.

For A30C U63C, the self-cleavage stood at 0.0293.

For U2C A64G, the self-cleavage stood at 0.123.

For the variant C6G C46A, the self-cleavage is 0.153.

C6U U58C: the self-cleavage was 0.893.

As to C16G G68C, the self-cleavage turned out to be 0.153.

Regarding A31U C38G, the self-cleavage came to 0.

Turning to G17C U70C, the self-cleavage turned out to be 0.866.

For C38G U55C, the self-cleavage was found to be 0.0193.

Turning to C50G U53C, the self-cleavage came out at 0.327.

Take U5A C46U: the self-cleavage was 0.0644.

For A24C G25C, the self-cleavage was 0.315.

For the variant G13A C66A, the self-cleavage came to 0.173.

Turning to A22C U58C, the self-cleavage is 0.94.

With U2A A23G, the self-cleavage was found to be 0.332.

C38G U67G: the self-cleavage came to 0.124.

For the variant G42C U70G, the self-cleavage was 0.145.

Consider U8A A30G, for which the self-cleavage was 0.13.

Regarding U14A G69U, the self-cleavage is 0.205.

Turning to C4A A22C, the self-cleavage was 0.131.

Take C4A A22G: the self-cleavage worked out at 0.222.

Turning to A45U A49C, the self-cleavage is 0.134.

As for U60C C65G, the self-cleavage was found to be 0.531.

Regarding C16A G19A, the self-cleavage worked out at 0.991.

Turning to A31U A64G, the self-cleavage was found to be 0.0407.
